Earlier results in article PMC1991591.

Molecular target: Fus3 (Saccharomyces cerevisiae) (UniProt P16892)
UniProt P16892, sequence (P16892 whole entry): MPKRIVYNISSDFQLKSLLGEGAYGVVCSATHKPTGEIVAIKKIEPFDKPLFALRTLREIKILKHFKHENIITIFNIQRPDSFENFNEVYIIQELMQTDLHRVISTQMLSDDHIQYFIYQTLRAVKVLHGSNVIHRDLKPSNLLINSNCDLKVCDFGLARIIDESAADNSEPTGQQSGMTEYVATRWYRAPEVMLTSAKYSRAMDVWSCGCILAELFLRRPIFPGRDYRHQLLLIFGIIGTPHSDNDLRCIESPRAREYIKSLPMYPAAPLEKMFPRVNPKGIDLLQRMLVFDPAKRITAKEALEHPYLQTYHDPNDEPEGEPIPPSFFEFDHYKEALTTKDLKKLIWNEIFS

Kd: 1 µM
Substance: Ste5 (from UniProt P32917)
